Source: US20090062199A1, “Nogo Receptor Polypeptides and Polypeptide Fragments and Uses Thereof” (Biogen Idec MA Inc., priority 2005, published 2009)

T1: TAJ (UniProt Q9NS68 30-170, limits assumed)
T1 construct: also called TROY
T1 sequence (looked up): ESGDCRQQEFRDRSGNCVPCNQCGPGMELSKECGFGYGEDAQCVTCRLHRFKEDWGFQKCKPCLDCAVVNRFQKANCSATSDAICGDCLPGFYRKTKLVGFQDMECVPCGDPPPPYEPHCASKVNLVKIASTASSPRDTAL

T2: TAJ (Homo sapiens, UniProt Q9NS68)
T2 sequence (Q9NS68 30-423): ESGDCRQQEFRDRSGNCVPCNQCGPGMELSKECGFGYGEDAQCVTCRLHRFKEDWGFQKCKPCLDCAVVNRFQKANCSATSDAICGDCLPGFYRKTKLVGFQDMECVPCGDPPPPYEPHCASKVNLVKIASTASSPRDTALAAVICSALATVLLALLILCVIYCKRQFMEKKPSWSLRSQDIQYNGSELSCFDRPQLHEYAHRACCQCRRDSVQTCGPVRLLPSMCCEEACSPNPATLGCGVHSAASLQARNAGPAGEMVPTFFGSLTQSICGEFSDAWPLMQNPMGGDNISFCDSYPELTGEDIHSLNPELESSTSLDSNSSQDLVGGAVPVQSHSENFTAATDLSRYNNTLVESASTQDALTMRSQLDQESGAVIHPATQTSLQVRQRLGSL

T3: p75 (Homo sapiens, UniProt P08138)
T3 sequence (P08138 29-427): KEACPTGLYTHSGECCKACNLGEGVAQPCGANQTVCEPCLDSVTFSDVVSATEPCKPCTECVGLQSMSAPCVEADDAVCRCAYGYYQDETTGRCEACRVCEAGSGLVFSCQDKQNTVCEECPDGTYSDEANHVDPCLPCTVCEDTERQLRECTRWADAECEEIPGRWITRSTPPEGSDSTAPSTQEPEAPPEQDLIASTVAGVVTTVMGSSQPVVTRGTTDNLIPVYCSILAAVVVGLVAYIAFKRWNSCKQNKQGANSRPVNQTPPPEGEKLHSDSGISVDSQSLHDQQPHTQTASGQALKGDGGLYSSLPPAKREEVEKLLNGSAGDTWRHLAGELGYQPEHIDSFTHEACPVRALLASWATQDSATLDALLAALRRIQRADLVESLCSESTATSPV

T4: Nogo-66 (Homo sapiens, UniProt Q9NQC3)
T4 construct: Nogo-66 is a 66 amino acid peptide from NogoA
T4 sequence (Q9NQC3 1055-1120 limits assumed): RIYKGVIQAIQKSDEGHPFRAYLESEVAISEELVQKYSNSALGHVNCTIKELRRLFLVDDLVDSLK

T5: LINGO-1 (Homo sapiens, UniProt Q96FE5)
T5 sequence (Q96FE5 42-620): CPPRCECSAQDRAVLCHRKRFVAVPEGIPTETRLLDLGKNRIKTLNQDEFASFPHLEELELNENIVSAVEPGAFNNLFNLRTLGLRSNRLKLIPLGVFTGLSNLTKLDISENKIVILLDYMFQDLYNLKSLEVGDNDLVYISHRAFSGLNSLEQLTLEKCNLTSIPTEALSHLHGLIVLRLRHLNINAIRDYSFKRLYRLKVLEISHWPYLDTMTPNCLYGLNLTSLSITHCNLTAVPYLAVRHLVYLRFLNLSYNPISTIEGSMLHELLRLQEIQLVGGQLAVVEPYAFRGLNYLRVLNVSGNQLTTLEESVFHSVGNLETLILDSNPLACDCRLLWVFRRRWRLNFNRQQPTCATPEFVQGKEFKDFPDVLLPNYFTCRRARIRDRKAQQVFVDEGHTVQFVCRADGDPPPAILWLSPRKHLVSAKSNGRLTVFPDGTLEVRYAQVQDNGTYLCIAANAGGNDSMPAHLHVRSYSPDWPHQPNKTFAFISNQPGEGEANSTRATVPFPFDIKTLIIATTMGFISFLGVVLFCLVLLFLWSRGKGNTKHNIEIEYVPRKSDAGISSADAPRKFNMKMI

T6: OMgp (Homo sapiens, UniProt P23515)
T6 sequence (P23515 25-417): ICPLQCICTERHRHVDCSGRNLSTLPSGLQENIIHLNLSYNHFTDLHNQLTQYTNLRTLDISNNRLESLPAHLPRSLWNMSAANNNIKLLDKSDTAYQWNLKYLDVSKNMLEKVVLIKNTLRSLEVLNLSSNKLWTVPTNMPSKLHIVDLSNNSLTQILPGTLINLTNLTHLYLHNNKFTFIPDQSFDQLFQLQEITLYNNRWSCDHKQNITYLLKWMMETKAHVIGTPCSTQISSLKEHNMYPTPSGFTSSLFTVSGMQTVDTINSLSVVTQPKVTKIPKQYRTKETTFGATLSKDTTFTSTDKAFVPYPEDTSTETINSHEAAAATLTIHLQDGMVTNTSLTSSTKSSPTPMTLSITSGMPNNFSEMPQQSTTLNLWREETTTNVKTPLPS

B1: Human NgR1, excluding the GPI domain (FL-NgR1, residues 27-438) with a flag tag at its N-terminus (receptor)
chain: CPGACVCYNEPKVTTSCPQQGLQAVPVGIPAASQRIFLHGNRISHVPAASFRACRNLTILWLHSNVLARIDAAAFTGLALLEQLDLSDNAQLRSVDPATFHGLGRLHTLHLDRCGLQELGPGLFRGLAALQYLYLQDNALQALPDDTFRDLGNLTHLFLHGNRISSVPERAFRGLHSLDRLLLHQNRVAHVHPHAFRDLGRLMTLYLFANNLSALPTEALAPLRALQYLRLNDNPWVCDCRARPLWAWLQKFRGSSSEVPCSLPQRLAGRDLKRLAANDLQGCAVATGPYHPIWTGRATDEEPLGLPKCCQPDAADKASVLEPGRPASAGNALKGRVPPGDSPPGNGSGPRHINDSPFGTLPGSAEPPLTAVRPEGSEPPGFPTSGPRRRPGCSRKNRTRSHCRLGQAGSGG
notes: Soluble protein expressed in CHO cells; also called human FL-NgR1; NgRI; not shown: N-terminal flag tag
B2: FL-NgR1: Human NgR1 excluding the GPI domain, residues 27-438 (SEQ ID NO:22), N-terminal flag tag, expressed in CHO cells (protein)
chain: B1 chain
modifications: N-terminal FLAG tag; Human NgR-1

Columns and labels:
TAJ [1] = biological target: T1, TAJ; test: ELISA; reference is NgR1(310)
TAJ [2] = biological target: T2, TAJ; test: ELISA binding of FL-NgR1 to TAJ; conditions: compared with truncated versions containing the LRR region alone
Excerpt: (§1) On size exclusion chromatography (SEC), the protein eluted as a single peak with a mass of about 80 kDa (FIG. 2B). […] See, for e.g., Shao, et al., (2005), Neuron 45, 353-359. A 10-fold higher affinity for Taj was seen using FL-NgR1 compared with the truncated versiox NgR1 (310) containing just the LRR region as described in Id.

p75 = biological target: T3, p75; test: ELISA binding of FL-NgR1 to p75; conditions: compared with truncated versions containing the LRR region alone
AP-Lingo-1 = test: Competition ELISA, anti-NgR1 antibody blocking binding of AP-Lingo-1 to FL-NgR1; conditions: anti-NgR1 antibody used to block binding; FIG. 2C
Excerpt: as §1

Nogo-66 = biological target: T4, Nogo-66; test: ELISA binding of FL-NgR1 to Nogo-66; conditions: compared with truncated versions containing the LRR region alone
LINGO-1 = biological target: T5, LINGO-1; test: ELISA binding of FL-NgR1 to LINGO-1; conditions: compared with truncated versions containing the LRR region alone
Excerpt: as §1

OMgp = biological target: T6, OMgp; test: ELISA binding of FL-NgR1 to OMgp; conditions: compared with truncated versions containing the LRR region alone
AP-OMgp = test: Competition ELISA, anti-NgR1 antibody blocking binding of AP-OMgp to FL-NgR1; conditions: anti-NgR1 antibody used to block binding; FIG. 2C
Excerpt: as §1

Row | Molecule | fold higher affinity compared with NgR1 (310) (TAJ [1]) [fold] | binding in an ELISA assay to TAJ (TAJ [2]) | binding in an ELISA assay to p75 (p75) | binding of AP-Lingo-1 in competition ELISA (AP-Lingo-1) | binding in an ELISA assay to Nogo-66 (Nogo-66) | binding in an ELISA assay to LINGO-1 (LINGO-1) | binding in an ELISA assay to OMgp (OMgp) | binding of AP-OMgp in competition ELISA (AP-OMgp)
1 | B1 | 10 |  |  |  |  |  |  | 
2 | B2 |  | as well as or better than truncated versions containing the LRR region alone | as well as or better than truncated versions containing the LRR region alone | verified the activities of FL-NgR1 | as well as or better than truncated versions containing the LRR region alone | as well as or better than truncated versions containing the LRR region alone | as well as or better than truncated versions containing the LRR region alone | verified the activities of FL-NgR1
